Laboratory results: paper PMC3807590
Each block holds one substance with its values, some of them ahead of it.

What was measured:
[1] = molecular target: Chicken skeletal muscle α-actin (F-actin, unlabeled) (chicken) (UniProt P68139); assay: co-sedimentation; increasing tropomyosin (0-10 µM) mixed with 5 µM actin in F-buffer (2 mM HEPES, pH 7.6, 40 mM NaCl, 5 mM MgCl2) at 22°C, ultracentrifuged; supernatants and pellets on SDS-PAGE; apparent constants (Kapp)
[2] = molecular target: Chicken skeletal muscle α-actin labeled with DABMI at Cys374 (chicken) (UniProt P68139)
[3] = molecular target: Chicken skeletal muscle α-actin (F-actin, unlabeled) (chicken) (UniProt P68139)

- Ka [1]: 1.27e+07 M⁻¹
Substance: Chimeric rat α-tropomyosin TM1b9a

- Ka [1]: 1.49e+07 M⁻¹
Substance: Ser232Cys-TM5a labeled with AEDANS (natural protein)

- Ka [1]: 1.42e+07 M⁻¹
Substance: Recombinant rat non-muscle α-tropomyosin isoform TM5a (natural protein)

- Ka [1]: 2.25e+07 M⁻¹
Substance: Recombinant rat non-muscle α-tropomyosin isoform TM2 (natural protein)

- Ka [1]: 1.24e+07 M⁻¹
Substance: Ala232Cys-TM1b9a labeled with AEDANS

- S1/actin molar ratio of strongly bound myosin heads required for half-maximal change in FRET between AEDANS-TM1b9a/A232C and DABMI-actin (S1/actin molar ratio) [2]: 0.14
- S1/actin molar ratio of strongly bound myosin heads required for half-maximal change in FRET between AEDANS-TM2/S269C and DABMI-actin (S1/actin molar ratio) [2]: 0.12
- S1/actin molar ratio of strongly bound myosin heads required for half-maximal change in FRET between AEDANS-TM5a/S232C and DABMI-actin (S1/actin molar ratio) [2]: 0.08
- S1/actin molar ratio of strongly bound myosin heads required for half-maximal change in FRET between AEDANS-skTM/A269C and DABMI-actin (S1/actin molar ratio) [2]: 0.15
- Actin–myosin S1 ATPase activity in the presence of TM1b9a/A232C; 0.8 µM S1, 9.2 µM F-actin, 1.2 µM tropomyosin (nmol Pi/mg S1/min) [3]: 126
- Actin–myosin S1 ATPase activity in the presence of TM1b9a; 0.8 µM S1, 9.2 µM F-actin, 1.2 µM tropomyosin (nmol Pi/mg S1/min) [3]: 108
- Actin–myosin S1 ATPase activity in the presence of TM2/S269C; 0.8 µM S1, 9.2 µM F-actin, 1.2 µM tropomyosin (nmol Pi/mg S1/min) [3]: 112
- Actin–myosin S1 ATPase activity in the presence of TM2; 0.8 µM S1, 9.2 µM F-actin, 1.2 µM tropomyosin (nmol Pi/mg S1/min) [3]: 91.7
- Actin–myosin S1 ATPase activity in the presence of TM5a/S232C; 0.8 µM S1, 9.2 µM F-actin, 1.2 µM tropomyosin (nmol Pi/mg S1/min) [3]: 184
- Actin–myosin S1 ATPase activity in the presence of TM5a; 0.8 µM S1, 9.2 µM F-actin, 1.2 µM tropomyosin (nmol Pi/mg S1/min) [3]: 169
- Actin–myosin S1 ATPase activity in the presence of skTM/A269C; 0.8 µM S1, 9.2 µM F-actin, 1.2 µM tropomyosin (nmol Pi/mg S1/min) [3]: 104
- Actin–myosin S1 ATPase activity in the presence of skTM; 0.8 µM S1, 9.2 µM F-actin, 1.2 µM tropomyosin (nmol Pi/mg S1/min) [3]: 103
Substance: Chicken skeletal myosin subfragment 1 (S1) (domain or fragment)

- Ka [1]: 2.04e+07 M⁻¹
Substance: Ser269Cys-TM2 labeled with AEDANS (natural protein)
